Data: patent US20120164754, “KIT AND METHOD OF DETERMINING NUCLEOTIDE SEQUENCE OF TARGET NUCLEIC ACID” (SAMSUNG ELECTRONICS CO., LTD., published 2012)

Target: Zif268-HMGa1-mCherry fusion protein (Mus musculus? (Zif268) / Homo sapiens …)
Test: SPR; about 140 nM; target immobilised on CM5 chip (Biacore)
Protocol: Affinity of the fusion proteins prepared in Example 1 to a target nucleic acid nucleotide sequence was measured using a surface plasmon resonance (SPR) system (Biacore) to determine the equilibrium dissociation constant, Kd, for forming the fusion protein-target nucleic acid complex. After immobilization of the target nucleic acid (SEQ ID NO. 9) to a CM5 chip, the fusion proteins were loaded into the microfluidic chamber of the SPR.

Zif268-HMGa1-mCherry fusion protein (Mus musculus? (Zif268) / Homo sapiens …), sequence (chain, as listed by the source): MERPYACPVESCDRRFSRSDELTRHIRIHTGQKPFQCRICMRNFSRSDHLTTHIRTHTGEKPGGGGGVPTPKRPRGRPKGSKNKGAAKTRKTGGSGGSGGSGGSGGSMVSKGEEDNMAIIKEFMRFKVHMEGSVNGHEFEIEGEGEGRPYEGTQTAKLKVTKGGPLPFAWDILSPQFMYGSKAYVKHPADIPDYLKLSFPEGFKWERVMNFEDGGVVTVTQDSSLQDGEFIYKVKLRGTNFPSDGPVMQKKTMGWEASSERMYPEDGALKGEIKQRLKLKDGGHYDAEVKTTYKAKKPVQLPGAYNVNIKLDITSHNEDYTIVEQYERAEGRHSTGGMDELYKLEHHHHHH

B1: target nucleic acid (Zif268 target) (dsDNA)
DNA 1: GTGTGTGTGTGATCTGCGTGGGCGGTAAG
DNA 2: CTTACCGCCCACGCAGATCACACACACAC
  Kd: 140 nM
